How the values were obtained:
Experiment in all cases: flow cytometry
human SPNS2 K136A mutant = target: T1, human SPNS2 K136A mutant (human, UniProt Q8IVW8 1-549)
T1 sequence: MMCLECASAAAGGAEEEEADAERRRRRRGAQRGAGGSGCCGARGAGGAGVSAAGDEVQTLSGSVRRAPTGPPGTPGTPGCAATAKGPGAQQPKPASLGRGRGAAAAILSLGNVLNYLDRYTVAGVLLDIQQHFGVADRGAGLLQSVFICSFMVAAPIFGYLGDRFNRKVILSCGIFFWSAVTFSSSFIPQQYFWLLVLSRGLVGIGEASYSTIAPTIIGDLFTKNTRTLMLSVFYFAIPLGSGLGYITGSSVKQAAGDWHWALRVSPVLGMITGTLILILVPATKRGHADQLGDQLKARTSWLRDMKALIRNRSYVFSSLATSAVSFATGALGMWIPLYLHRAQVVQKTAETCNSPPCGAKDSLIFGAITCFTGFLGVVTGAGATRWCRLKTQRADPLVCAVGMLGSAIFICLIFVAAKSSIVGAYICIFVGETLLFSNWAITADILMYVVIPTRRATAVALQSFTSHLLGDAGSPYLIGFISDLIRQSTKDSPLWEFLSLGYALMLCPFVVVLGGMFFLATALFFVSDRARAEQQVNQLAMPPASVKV

human SPNS2 R200A mutant = target: T2, human SPNS2 R200A mutant (human, UniProt Q8IVW8 1-549)
T2 sequence: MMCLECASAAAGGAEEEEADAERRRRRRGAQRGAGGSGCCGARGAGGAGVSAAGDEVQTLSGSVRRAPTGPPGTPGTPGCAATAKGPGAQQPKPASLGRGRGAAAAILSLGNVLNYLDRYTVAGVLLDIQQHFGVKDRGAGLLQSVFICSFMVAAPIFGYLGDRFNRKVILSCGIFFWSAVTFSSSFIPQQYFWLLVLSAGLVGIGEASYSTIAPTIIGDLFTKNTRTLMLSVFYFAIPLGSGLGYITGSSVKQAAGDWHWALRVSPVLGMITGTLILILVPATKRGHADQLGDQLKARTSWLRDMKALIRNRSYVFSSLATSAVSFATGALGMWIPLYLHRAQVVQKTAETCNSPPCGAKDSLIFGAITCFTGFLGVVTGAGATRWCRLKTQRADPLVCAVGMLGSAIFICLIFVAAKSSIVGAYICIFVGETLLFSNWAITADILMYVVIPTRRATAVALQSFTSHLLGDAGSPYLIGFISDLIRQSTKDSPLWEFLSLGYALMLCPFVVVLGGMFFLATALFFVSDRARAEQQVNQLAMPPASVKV

human SPNS2 F133A mutant = target: T3, human SPNS2 F133A mutant (human, UniProt Q8IVW8 1-549)
T3 sequence: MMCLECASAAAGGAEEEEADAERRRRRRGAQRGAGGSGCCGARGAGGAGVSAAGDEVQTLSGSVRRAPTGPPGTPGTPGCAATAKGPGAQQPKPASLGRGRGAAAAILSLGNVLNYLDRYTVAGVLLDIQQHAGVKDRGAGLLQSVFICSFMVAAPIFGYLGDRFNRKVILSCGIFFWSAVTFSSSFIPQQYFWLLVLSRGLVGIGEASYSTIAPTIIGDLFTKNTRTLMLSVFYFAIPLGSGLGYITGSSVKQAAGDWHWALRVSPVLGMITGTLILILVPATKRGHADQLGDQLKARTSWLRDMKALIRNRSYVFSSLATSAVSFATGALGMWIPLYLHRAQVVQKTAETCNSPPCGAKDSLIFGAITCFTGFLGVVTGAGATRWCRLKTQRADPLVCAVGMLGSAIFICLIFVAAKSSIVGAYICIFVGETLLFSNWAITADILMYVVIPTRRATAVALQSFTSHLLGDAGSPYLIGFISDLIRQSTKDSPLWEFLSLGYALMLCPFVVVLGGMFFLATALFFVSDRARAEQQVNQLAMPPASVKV

human SPNS2 W259A mutant = target: T4, human SPNS2 W259A mutant (human, UniProt Q8IVW8 1-549)
T4 sequence: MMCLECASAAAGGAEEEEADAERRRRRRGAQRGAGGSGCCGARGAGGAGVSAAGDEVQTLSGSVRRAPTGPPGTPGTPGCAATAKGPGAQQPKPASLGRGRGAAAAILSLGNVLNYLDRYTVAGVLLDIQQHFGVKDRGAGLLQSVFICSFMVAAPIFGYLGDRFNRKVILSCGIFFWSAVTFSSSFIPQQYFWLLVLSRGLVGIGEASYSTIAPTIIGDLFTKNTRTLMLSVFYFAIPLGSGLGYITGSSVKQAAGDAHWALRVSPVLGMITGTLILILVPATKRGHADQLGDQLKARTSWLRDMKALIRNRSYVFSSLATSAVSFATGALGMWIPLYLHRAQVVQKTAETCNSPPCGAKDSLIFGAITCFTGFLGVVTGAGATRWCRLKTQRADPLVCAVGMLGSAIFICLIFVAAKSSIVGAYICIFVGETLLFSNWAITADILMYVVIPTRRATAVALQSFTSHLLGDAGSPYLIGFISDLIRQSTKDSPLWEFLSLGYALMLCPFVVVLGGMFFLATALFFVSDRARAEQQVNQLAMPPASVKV

human SPNS2 Q130A mutant = target: T5, human SPNS2 Q130A mutant (human, UniProt Q8IVW8 1-549)
T5 sequence: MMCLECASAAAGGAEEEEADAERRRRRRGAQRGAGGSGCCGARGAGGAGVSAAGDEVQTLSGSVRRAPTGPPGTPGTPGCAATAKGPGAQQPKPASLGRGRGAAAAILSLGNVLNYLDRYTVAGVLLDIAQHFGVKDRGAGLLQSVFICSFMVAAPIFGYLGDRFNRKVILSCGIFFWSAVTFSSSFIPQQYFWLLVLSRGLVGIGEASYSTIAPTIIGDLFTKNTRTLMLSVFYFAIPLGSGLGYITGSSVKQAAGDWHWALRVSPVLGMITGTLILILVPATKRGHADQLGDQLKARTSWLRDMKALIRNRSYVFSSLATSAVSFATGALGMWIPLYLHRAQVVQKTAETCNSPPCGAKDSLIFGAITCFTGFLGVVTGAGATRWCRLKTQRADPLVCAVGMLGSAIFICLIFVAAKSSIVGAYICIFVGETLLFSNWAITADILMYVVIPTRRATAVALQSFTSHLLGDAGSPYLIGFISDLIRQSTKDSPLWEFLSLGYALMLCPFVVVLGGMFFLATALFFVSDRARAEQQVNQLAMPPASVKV

Measured: binding ratio vs native type

B1: 49-0703G (antibody, IgG2b, V domains shown)
VH: EVQLVESGGGLVQPGRSMKLSCAASGFTFSNHYMAWVRQAPTKGLEWVASISTGGGNTYYRDSVKGRFTISRDNAKSTLYLQMDSLRSEDTATYYCARQDYSNYMGGFAYWGQGTLVTVSS
VL: QFVLTQPNSVSTNLGSTVKLSCKRSTGNIGNNYVNWYQQYEGRSPTTMIYRDDERPDGVPDRFSGSIDRSSNSALLTINNVQTEDEADYFCQSFSNGMFIFAGGTQLTVL
< 0.5 ratio: all assays above

— patent publication US20210147523A1 (TEIJIN PHARMA, published 2021)
